Data as given in PMC3794858, “NECAP 1 Regulates AP-2 Interactions to Control Vesicle Size, Number, and Cargo During Clathrin-Mediated Endocytosis” (PLoS Biology, 2013).
Blank lines part the entries; values can stand above or below the binder they belong to. Where no end group is shown, it is not given here.

Assays:
[1] = target: T1, 15N-labeled PHear (NECAP 1 PHear domain, GST cleaved) (mouse, UniProt Q9CR95 1-133); assay: NMR; L47 peak
T1 chain: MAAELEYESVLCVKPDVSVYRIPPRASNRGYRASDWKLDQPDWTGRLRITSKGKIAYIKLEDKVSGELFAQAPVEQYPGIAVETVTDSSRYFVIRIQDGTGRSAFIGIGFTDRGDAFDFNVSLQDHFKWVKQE

[2] = target: T1, 15N-labeled PHear (NECAP 1 PHear …); assay: NMR; I106 peak
[3] = target: T2, 15N-labeled PHear (NECAP 1 PHear domain, GST cleaved) (mouse, UniProt Q9CR95 1-133); assay: NMR titration; 1H-15N HSQC of 15N-labeled PHear (0.15 mM) titrated with unlabeled peptide, 30°C, 25 mM sodium phosphate pH 7.2, 75 mM NaCl, 0.5 mM EDTA, 3 mM DTT; conditions: both partners purified
T2 construct: NECAP 1, PHear domain, residues 1-133; Uniformly 15N-labelled for NMR; source: E. coli BL21, purified (GST fusion cleaved with thrombin, S75 gel filtration)
T2 sequence (looked up): T1 chain

Kd [1]: 540 µM
Kd [2]: 420 µM
Kd [3]: 480 µM
B1: β2-linker peptide (Ac-SQGDLLGDLLNLDLPPVN) (peptide)
peptide: Ac-SQGDLLGDLLNLDLPPVN
notes: peptide from the linker of β2-adaptin; the printed peptide has no G there; also called unlabeled β2-linker; source: synthetic peptide (Sheldon Biotechnology Center, McGill University), HPLC purified

binding result [3]: binds
B2: AP180 FxDxF-motif peptide (Ac-VDIFGDAFAAS) (peptide)
peptide: Ac-VDIFGDAFAAS
notes: peptide derived from AP180; also called AP-180 peptide; FxDxF-motif peptide derived from AP180; source: synthetic peptide (Sheldon Biotechnology Center, McGill University), HPLC purified
